Assay results: patent publication US20250346679A1 (INVOX PHARMA, published 2025)

Key:
[1] = target: T1, cynomolgus CD137, cell-surface (cynomolgus, UniProt Q07011 24-255 (human entry)); experiment: flow cytometry on DO11.10.cCD137
T1 construct: also called DO11.10.cCD137; CD137 on cynomolgus T cells
T1 chain: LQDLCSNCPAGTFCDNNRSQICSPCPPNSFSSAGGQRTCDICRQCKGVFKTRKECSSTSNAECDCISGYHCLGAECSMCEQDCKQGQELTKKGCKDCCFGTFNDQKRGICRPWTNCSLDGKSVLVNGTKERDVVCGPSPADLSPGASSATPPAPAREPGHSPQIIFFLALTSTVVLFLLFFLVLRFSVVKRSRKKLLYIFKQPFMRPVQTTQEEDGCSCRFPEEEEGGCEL
Method: Non-specific binding was also assessed by testing binding to DO11.10 cells lacking CD137 expression.
Briefly, DO11.10, DO11.10.hCD137 or DO11.10.cCD137 suspensions were prepared in FACS buffer (DPBS containing (Gibco, 14190-094) containing 0.5% BSA (Sigma, A7906)) and seeded at 1×10⁵ cell/well in 100 μl in round bottomed 96-well plates (VWR, 734-1797). […] The washed cells were resuspended in the diluted antibody mixture, incubated at 4° C. for 30 minutes, and then washed once in FACS buffer. […] Dead cells were excluded and the fluorescence in the APC channel (638 nm 660/20) was measured. The geometric mean fluorescence intensity (GMFI) values were plotted vs the log concentration of antibody and the resulting curves were fitted using the log (agonist) vs response equation in GraphPad Prism.

[2] = target: T2, human PD-L1, cell-surface (human, UniProt Q9NZQ7 19-290); experiment: flow cytometry on activated primary human CD4+ T cells (carry PD-L1 and CD137); activated primary human CD4+ T cells (carry PD-L1 and little CD137)
T2 construct: also called HEK.hPD-L1; PD-L1 on MDA-MB-231, on Promega PD-L1 cells, on primary human cells
T2 sequence (Q9NZQ7 19-290): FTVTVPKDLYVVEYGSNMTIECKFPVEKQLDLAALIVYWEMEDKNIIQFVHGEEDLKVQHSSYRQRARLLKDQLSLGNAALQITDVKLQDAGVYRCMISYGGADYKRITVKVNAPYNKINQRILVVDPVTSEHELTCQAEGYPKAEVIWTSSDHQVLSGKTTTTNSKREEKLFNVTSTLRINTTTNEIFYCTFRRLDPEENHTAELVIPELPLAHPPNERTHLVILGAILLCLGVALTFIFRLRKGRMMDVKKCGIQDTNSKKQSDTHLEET
Method: CD137 is rapidly expressed to high levels on activated CD8⁺ T cells and also on activated CD4⁺ T cells with lower levels (Xue-Zhong Yu et al, 2013), therefore Pan T cells were stimulated for 24 hours using Dynabeads™ Human T-Activator CD3/CD28 beads (Thermo, 11132D) according to manufacturer's instructions.
Dead cells were excluded and the fluorescence in the APC channel (638 nm 660/20) was measured to show test antibody binding. The geometric Mean Fluorescence Intensity (GMFI) values were plotted vs the log concentration of antibody and the resulting curves were fitted using the log (agonist) vs response equation in GraphPad Prism.

B1: FS22-172-003-AA/E12v2 (bispecific antibody, human IgG1, kappa, L234A L235A)
heavy: EVQLVQSGAEVKRPGASVKVSCKASGYPFTSYGISWVRQAPGQGLEWMGWISAYSGGTNYAQKLQGRVTMTTDTSTSTAYMELRSLRSDDTAVYYCARDLFPTIFGVSYYYYWGQGTLVTVSSASTKGPSVFPLAPSSKSTSGGTAALGCLVKDYFPEPVTVSWNSGALTSGVHTFPAVLQSSGLYSLSSVVTVPSSSLGTQTYICNVNHKPSNTKVDKKVEPKSCDKTHTCPPCPAPEAAGGPSVFLFPPKPKDTLMISRTPEVTCVVVDVSHEDPEVKFNWYVDGVEVHNAKTKPREEQYNSTYRVVSVLTVLHQDWLNGKEYKCKVSNKALPAPIEKTISKAKGQPREPQVYTLPPSRDELPYIIPPYNQVSLTCLVKGFYPSDIAVEWESNGQPENNYKTTPPVLDSDGSFFLYSKLTVGADRWLEGNVFSCSVMHEALHNHYTQKSLSLSPG
light: DIQMTQSPSTLSASVRDRVIITCRASQSIGNRLAWYQHKPGKAPKLLIYEASTSETGVPSRFSGSGSGTDFTLTISSLQPEDFATYYCQQSYSTPYTFGQGTKLEIKRTVAAPSVFIFPPSDEQLKSGTASVVCLLNNFYPREAKVQWKVDNALQSGNSQESVTEQDSKDSTYSLSSTLTLSKADYEKHKVYACEVTHQGLSSPVTKSFNRGEC
notes: PD-L1 site in the Fab, CD137 site in the CH3, LALA; also called anti-human CD137/PD-L1 mAb^2
[1]
  EC50: 7.39 nM
[2]
  EC50: 0.8 nM
